From article PMC10998612 (Proceedings of the National Academy of Sciences of the …, 2024) come the findings set out here.

This test addresses T1, eIF2γ (γ subunit of eIF2, as in the eIF2αγ dimer) (human, UniProt P41091 1-472).
T1 construct: eIF2 gamma subunit (eIF2γ); The γ chain of m6, written alone for the pairs that touch in the crystal structure; also called human eIF2γ; source: E. coli, co-expressed with eIF2α and CDC123 from a multicistronic plasmid, purified as eIF2αγ
Briefly: crystal structure; 7.5 mg/mL eIF2αγ combined with PPP1R15A_R3^420-452 at a molar ratio of 1:8 with 0.5 mM GMPPNP and 5 mM MgCl2; sitting drop, 20 °C; 11 to 12% PEG 6000, 0.1 M Tris-HCl pH 8.5; 3.35 Å. To be noted: both partners purified.

T1 sequence (P41091 whole entry): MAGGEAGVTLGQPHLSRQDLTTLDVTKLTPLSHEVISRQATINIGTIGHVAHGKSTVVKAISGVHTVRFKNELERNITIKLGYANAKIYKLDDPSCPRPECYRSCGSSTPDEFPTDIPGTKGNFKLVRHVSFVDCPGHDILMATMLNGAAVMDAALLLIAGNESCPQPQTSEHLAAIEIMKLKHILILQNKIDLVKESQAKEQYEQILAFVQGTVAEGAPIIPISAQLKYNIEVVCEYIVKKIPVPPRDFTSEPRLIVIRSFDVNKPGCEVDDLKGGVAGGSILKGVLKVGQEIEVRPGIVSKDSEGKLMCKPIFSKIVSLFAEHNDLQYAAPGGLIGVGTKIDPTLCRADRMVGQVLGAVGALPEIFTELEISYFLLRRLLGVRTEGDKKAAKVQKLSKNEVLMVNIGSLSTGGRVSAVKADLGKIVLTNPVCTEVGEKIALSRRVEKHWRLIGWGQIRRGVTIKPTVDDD

B1: PPP1R15A^420-452 (R3) peptide (peptide)
peptide: not shown
notes: residue numbers based on UniProt O75807; Only residues 426-434 were built in the structure
On to B1, for which the binding result was “binds”.
